Source: patent US20170267738A1 (IMMATICS BIOTECHNOLOGIES, published 2017)

Molecular target: MHC/MAG-003 complex on target cells (human)
Test: cell-based or functional assay

EC50 (target peptide titration, IFN-γ release) | Binder
~10 nM | TCR R20P1H7 (TCR, V domains shown) V domain 1: EDQVTQSPEALRLQEGESSSLNCSYTVSGLRGLFWYRQDPGKGPEFLFTLYSAGEEKEKERLKATLTKKESFLHITAPKPEDSATYLCAVQGENSGYSTLTFGKGTMLLVSP V domain 2: EAQVTQNPRYLITVTGKKLTVTCSQNMNHEYMSWYRQDPGLGLRQIYYSMNVEVTDKGDVPEGYKVSRKEKRNFPLILESPSPNQTSLYFCASSLGPGLAAYNEQFFGPGTRLTVLE
~10 nM | TCR R10P2G12 (TCR, V domains shown) V domain 1: AQKVTQAQTEISVVEKEDVTLDCVYETRDTTYYLFWYKQPPSGELVFLIRRNSFDEQNEISGRYSWNFQKSTSSFNFTITASQVVDSAVYFCALSEGNSGNTPLVFGKGTRLSVIA V domain 2: DVKVTQSSRYLVKRTGEKVFLECVQDMDHENMFWYRQDPGLGLRLIYFSYDVKMKEKGDIPEGYSVSREKKERFSLILESASTNQTSMYLCASSLSSGSHQETQYFGPGTRLLVLE
